The source of these data is patent publication CN117820479A (BEILAI PHARMACEUTICAL CO LTD, dated 2024).

For assay [1], the target named is IL-17RA and IL-17RC co-expressed on 293F-IL-17RA-IL-17Rc-ACT1-NFκB-Luc reporter cells (UniProt Q96F46). Description: FACS on cells overexpressing IL-17RA and IL-17RC.
Assay [2] concerns the target IL-17A重组蛋白 (Human IL-17A重组蛋白, C端6×His标签) (human, UniProt Q16552 24-155, limits assumed). Description: cell-based or functional assay.
For assay [3], the target named is T1, Biotin-IL-17A-His (UniProt Q16552 24-155, biotinylated (Biotin-IL-17A-His; site not stated)).
T1 construct: also called 靶蛋白; not shown: His tag
Nature of the assay: ELISA: antibody coated at 2 ug/mL, Biotin-IL-17A-His titrated from 10 ug/mL in 5-fold steps (7 points), HRP-streptavidin, OD450.

T1 sequence (Q16552 24-155 limits assumed): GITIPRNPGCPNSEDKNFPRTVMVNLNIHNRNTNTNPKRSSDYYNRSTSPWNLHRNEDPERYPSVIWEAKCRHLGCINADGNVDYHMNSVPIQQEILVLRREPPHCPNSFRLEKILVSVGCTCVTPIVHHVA
Sequence of IL-17A重组蛋白 (Human IL-17A重组蛋白, C端6×His标签) (human, UniProt Q16552 24-155, limits assumed) (Q16552 other isoform, or with tags, fused parts or gaps limits assumed): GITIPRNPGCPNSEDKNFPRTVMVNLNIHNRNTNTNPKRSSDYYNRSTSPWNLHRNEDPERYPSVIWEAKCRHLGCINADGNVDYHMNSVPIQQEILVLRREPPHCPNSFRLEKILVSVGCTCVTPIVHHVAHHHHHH

In the case of “IL-17A重组蛋白 (Human IL-17A重组蛋白, C端6×His标签) (from UniProt Q16552 24-155) (ligand)”, the 阳性率 in assay [1] is > 90%.

B1: Ixekizumab (阳性对照抗体) (antibody, human IgG4 S228P, kappa, V domains shown)
VH: QVQLVQSGAEVKKPGSSVKVSCKASGYSFTDYHIHWVRQAPGQGLEWMGVINPMYGTTDYNQRFKGRVTITADESTSTAYMELSSLRSEDTAVYYCARYDYFTGTGVYWGQGTLVTVSS
VL: DIVMTQTPLSLSVTPGQPASISCRSSRSLVHSRGNTYLHWYLQKPGQSPQLLIYKVSNRFIGVPDRFSGSGSGTDFTLKISRVEAEDVGVYYCSQSTHLPFTFGQGTKLEIKR
notes: Made in house from the variable regions cloned into pcDNA3.4-hIgG4 and pcDNA3.4-hIgKc vectors; also called 对照抗体Ixekizumab; 阳性抗体
As to B1, the “IC50, 阻断Human IL-17A蛋白激活293F-IL-17RA-IL-17Rc-ACT1-NFκB-Luc (luciferase reporter)” value in assay [2] came to 1.36 µg/mL. In addition, in assay [3], a half-maximal effect (EC50) was put at 10.1 µg/mL.

B2: 串联抗体G12-1-F8 (IL-17A特异性串联抗体) (Fc fusion)
chain: EVQLVESGGGLVQPGGSLRLSCVAWGFSFSIYSVNWYRQAPGKERELVAGITKGGLKDYADSVKGRFTISRDNAKNAVYLRMNMLKPEDTAVYYCNAGRENGYWGQGTQVAVSTGGGGSGGGGSGGGGSEVQLVESGGGLVQPGGSLRLSCAASGFSIHIYAMGWYRQAPGKQRELVATITRGGVTNNADSVKGRFTISRDNAKNTAYLQMNSLKPEDTAVYYCNAGGTNGGYWGQGTQVTVSS
In the case of B2, the “IC50, 阻断Human IL-17A蛋白激活293F-IL-17RA-IL-17Rc-ACT1-NFκB-Luc (luciferase reporter)” value in assay [2] was determined as 0.759 µg/mL. Besides, it took 2.42 µg/mL to reach a half-maximal effect in assay [3] (EC50).
